Patent publication US20140322220A1 (Bayer, published 2014)

Columns and labels:
hFGFR3-Fc (IIIb) = target: T1, hFGFR3-Fc (IIIb) (human, UniProt P22607-2 23-377, biotinylated with biotin-LC-NHS); test: ELISA on coated biotinylated Fc fusion
T1 construct: Bought, R&D Systems 1264-FR
T1 sequence (looked up): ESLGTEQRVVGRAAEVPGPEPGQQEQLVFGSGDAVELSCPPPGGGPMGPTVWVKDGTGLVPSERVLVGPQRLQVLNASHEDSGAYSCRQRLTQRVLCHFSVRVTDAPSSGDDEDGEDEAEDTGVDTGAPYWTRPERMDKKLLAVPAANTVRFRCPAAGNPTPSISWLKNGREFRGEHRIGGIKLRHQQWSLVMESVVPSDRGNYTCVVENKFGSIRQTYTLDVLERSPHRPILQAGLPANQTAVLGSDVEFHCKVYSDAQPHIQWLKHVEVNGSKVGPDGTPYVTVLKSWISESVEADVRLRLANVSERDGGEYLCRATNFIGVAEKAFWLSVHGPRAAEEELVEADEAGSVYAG
Description: (§1) For the ELISA 96-well plates pre-coated with streptavidin (Pierce, 15500) were coated over night at 4° C. with 1 μg/ml biotinylated protein. Wells coated with biotinylated TRAIL-Fc served as a reference. The next day plates were washed 3 times with PBST, treated with blocking reagent, and washed again 3 times with PBST. 100 μl of purified Fabs (1 μg/ml) were added and incubated for 1 h at r.t. After washing 3 times with PBST, an anti-hIgG (Fab-specific) coupled to HRP (1:2500 diluted; Sigma; A 0293) was added and incubated for 1 h at Lt. Color reaction was developed by addition of 50 μl TMB (Invitrogen, 2023) and stopped after 5-15 min by adding 50 μl H₂SO₄ (Merck, 1120801000). Colorimetric reaction was recorded at […] in a plate reader (Tecan). Wells containing TRAIL-Fc were used as background values and the signal to background ratios were calculated as summarized in Table 4.

hFGFR4-Fc = target: T2, hFGFR4-Fc (human, UniProt P22455 22-369, biotinylated with biotin-LC-NHS); test: ELISA on coated biotinylated Fc fusion
T2 construct: Bought, R&D Systems, printed Cat. No. 685-MF
T2 sequence (looked up): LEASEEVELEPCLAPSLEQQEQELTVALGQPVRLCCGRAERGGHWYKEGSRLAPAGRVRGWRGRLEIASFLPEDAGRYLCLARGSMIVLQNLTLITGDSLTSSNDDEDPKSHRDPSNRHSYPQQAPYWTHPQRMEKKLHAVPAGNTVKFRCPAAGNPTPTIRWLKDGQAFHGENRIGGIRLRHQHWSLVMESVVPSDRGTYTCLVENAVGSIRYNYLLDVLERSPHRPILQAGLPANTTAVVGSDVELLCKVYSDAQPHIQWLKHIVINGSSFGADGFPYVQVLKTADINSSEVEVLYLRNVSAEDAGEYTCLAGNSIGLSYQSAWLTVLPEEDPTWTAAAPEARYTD
Description: as §1

hFGFR1β-Fc (IIIc) = target: T3, hFGFR1β-Fc (IIIc) (human, UniProt P11362-14 22-285, limits assumed, biotinylated with biotin-LC-NHS); test: ELISA on coated biotinylated Fc fusion
T3 construct: Bought, R&D Systems 661-FR
T3 sequence (looked up): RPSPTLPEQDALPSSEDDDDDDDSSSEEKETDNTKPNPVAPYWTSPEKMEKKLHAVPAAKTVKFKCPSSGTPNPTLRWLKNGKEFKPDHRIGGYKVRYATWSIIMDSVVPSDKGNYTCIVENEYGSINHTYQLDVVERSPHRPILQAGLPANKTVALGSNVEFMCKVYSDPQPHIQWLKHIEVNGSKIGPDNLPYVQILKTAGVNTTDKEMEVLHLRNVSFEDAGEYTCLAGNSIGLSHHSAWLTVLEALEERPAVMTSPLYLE
Description: as §1

mFGFR2β-Fc (IIIb) = target: T4, mFGFR2β-Fc (IIIb) (murine, UniProt P21803-2 22-263, limits assumed, biotinylated with biotin-LC-NHS); test: ELISA, 1 ug/ml Fab on coated antigen; grade of signal to background (+ 2-3, ++ 3-5, +++ >5)
T4 construct: Bought, R&D Systems 708-MF
Description: as §1

hFGFR2β-Fc (IIIb) = target: T5, hFGFR2β-Fc (IIIb) (human, UniProt P21802 22-377, biotinylated with biotin-LC-NHS); test: as above
T5 construct: also called FGFR2-2β Fc (IIIb)
T5 chain: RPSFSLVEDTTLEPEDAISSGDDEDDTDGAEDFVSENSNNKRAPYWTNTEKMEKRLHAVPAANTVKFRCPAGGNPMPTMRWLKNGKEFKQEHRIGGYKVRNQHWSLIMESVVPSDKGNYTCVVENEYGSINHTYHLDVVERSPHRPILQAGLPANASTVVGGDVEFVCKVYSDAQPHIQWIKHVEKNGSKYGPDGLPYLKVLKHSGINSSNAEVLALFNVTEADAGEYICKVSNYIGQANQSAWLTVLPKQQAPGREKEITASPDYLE
Description: as §1

hFGFR2α-Fc (IIIb) = target: T6, hFGFR2α-Fc (IIIb) (human, UniProt P21802 22-377, biotinylated with biotin-LC-NHS); test: as above
T6 construct: Bought, R&D Systems 663-FR, soluble Fc fusion
T6 chain: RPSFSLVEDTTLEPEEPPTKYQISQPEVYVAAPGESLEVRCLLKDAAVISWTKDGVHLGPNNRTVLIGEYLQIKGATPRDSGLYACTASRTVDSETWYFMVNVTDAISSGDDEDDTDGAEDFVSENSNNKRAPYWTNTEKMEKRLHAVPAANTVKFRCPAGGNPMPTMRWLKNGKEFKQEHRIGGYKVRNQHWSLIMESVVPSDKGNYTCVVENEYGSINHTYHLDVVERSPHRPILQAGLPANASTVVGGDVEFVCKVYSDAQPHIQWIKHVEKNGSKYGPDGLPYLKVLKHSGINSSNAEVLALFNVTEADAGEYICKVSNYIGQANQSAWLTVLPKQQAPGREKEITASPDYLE
Description: as §1

[1] = target: T7, recombinant human FGFR2 (Met 1-Glu 377) with C-terminal polyhistidine tag (human, UniProt P21802 22-377); test: protein binding ELISA; against TPP-1415
T7 construct: The range is that of the expressed DNA and begins at Met 1; also called His-tagged FGFR2; recombinant human FGFR2-IIIc molecule
Text: (§2) Two different types of ELISA were used to determine the binding improvement of mutated variants: a) Peptide Binding ELISA: a synthetic peptide comprising the amino acid sequence of the epitope linked C-terminally to a biotinylated lysine […]-Ttds-Lys(Biotin) (peptide sequence derived from SEQ ID NO:63, synthesized by JPT Peptide Technology GmbH, Berlin, Germany), and b) Recombinant Protein Binding ELISA: recombinant human FGFR2 (DNA sequence of human FGFR2 (NP 000132.3) Met 1-Glu 377, fused with a polyhistidine tag at the C-terminus; #10824-1-1081-1, Sin θ Biological Inc., Beijing, China).
(§3) Briefly, in both ELISA formats MTP plates (384 well Maxisorp, Nunc) were coated with 20 μl, anti-human IgG Fc specific (#12136; sigma) at 2.2 μg/ml for 2.5 h at 37° C. in coating buffer (#121125 Candor Bioscience GmbH). […] Anti-FGFR2 variants were immobilized in concentrations of 0.035 μg/ml (peptide based assay) or 0.2 μg/ml (recombinant human FGFR2 protein based assay) in 10% Smart Block in PBST depending on the format and variants to be analyzed by incubation of 20 μl for one hour at 20-22° C. After one washing step using 50 μl PBST, 20 μl quadruplets of the antigen dilution series in 10% SmartBlock in PBST with a maximum concentration of 100 nM were added and incubated for 1 h at 20-22° C. and the washing step was repeated 3 times. For the detection of the biotinylated epitope peptide 20 μl of streptavidine/POD conjugate (# S5512, Sigma) in a 1:1000 dilution in 10% SmartBlock in PBST were applied for one hour at 20-22° C. For the detection of the recombinant FGFR2 protein 20 μl of anti-His/HRP conjugate (#71840, novagen) in a 1:10000 dilution in 10% SmartBlock in PBST were applied for one hour at 20-22° C. After 3 washing steps 20 μl of 10 μM amplex red substrate (# A12222, Invitrogen) in 50 mM Sodium hydrogen phosphate, pH 7.6, were added and the fluorescence signal was detected using a common fluorescence reader, e.g. Tecan M1000. EC50 values were evaluated by fitting the data (Sigmoida) dose-response, variable slope, bottom set to background; GraphPad Prism software).

[2] = target: T7, recombinant human FGFR2 (Met 1-Glu 377) …; test: protein binding ELISA, antibody captured by anti-human IgG Fc, FGFR2-His titrated
Text: as §2, §3

T4 sequence (P21803 other isoform, or with tags, fused parts or gaps limits assumed): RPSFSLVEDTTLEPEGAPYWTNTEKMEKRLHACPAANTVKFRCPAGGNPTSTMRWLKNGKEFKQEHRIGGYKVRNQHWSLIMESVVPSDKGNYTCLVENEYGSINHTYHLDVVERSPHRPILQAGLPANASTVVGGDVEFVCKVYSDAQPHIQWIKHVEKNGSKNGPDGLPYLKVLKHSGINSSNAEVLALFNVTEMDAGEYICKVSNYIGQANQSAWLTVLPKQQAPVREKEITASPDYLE

Row | Binder | binding result (hFGFR3-Fc (IIIb)) | binding result (hFGFR4-Fc) | binding result (hFGFR1β-Fc (IIIc)) | ELISA signal to background ratio (mFGFR2β-Fc (IIIb)) [ratio] | ELISA signal to background ratio (hFGFR2β-Fc (IIIb)) [ratio] | ELISA signal to background ratio (hFGFR2α-Fc (IIIb)) [ratio] | fold EC50 reduction [1] [fold] | EC50 [2] [nM]
1 | M021-H02 (soluble Fab) (Fab, V domains shown, Soluble Fab from E. coli, purified through its His-tag) VH: EVQLLESGGGLVQPGGSLRLSCAASGFTFSNYGIHWVRQAPGKGLEWVAVISYDGSNKYYADSVKGRFTISRDNSKNTLYLQMNSLRAEDTAMYYCARDSSSAEDYWGQGTLVTVSS VL: QSVLTQPPSASGTPGQRVTISCSGSSSNTGSNTVNWYQQLPGTAPKLLIYRNNQRPSGVPDRFSGSKSGTSASLAISGLRSEDEADYYCETWDSNTRGVVFGGGTKLTVL | no binding | no binding | no binding | > 5 | > 5 | > 5 |  | 
2 | M054-A05 (soluble Fab) (Fab, V domains shown, Soluble Fab from E. coli, purified through its His-tag) VH: EVQLLESGGGLVQPGGSLRLSCAASGFTFSNYGMYWVRQAPGKGLEWVAVISYDGTNKYYVDSVKGRFTISRDNSKNTLYLQMNSLRAEDTAVYYCAKDLPKWGGFDSWGQGTLVTVSS VL: not shown | no binding | no binding | no binding | > 5 | 3 to 5 | > 5 |  | 
3 | TPP-1406 (antibody, human IgG1, lambda, V domains shown, Matured variant of M047-D08) VH: EVQLLESGGGLVQPGGSLRLSCAASGFTFSHSGMHWVRQAPGKGLEWVAVISYDGSNKYYADSVKGRFTISRDNSKNTLYLQMNSLRAEDTAVYYCAREQPLYDFEYWGQGTLVTVSS VL: AQSVLTQPPSASGTPGQRVTISCSGSSSNIGDNGVNWYQQLPGTAPKLLIYGASERPSGVPDRFSGSKSGTSASLAISGLRSEDEADYYCAAWDDSLDGWTFGGGTKLTVLG |  |  |  |  |  |  | 37 | 0.22
4 | TPP-1409 (antibody, human IgG1, lambda, V domains shown, Matured variant of M047-D08) VH: EVQLLESGGGLVQPGGSLRLSCAASGFTFSTSGMHWVRQAPGKGLEWVAVISYDGSNKYYADSVKGRFTISRDNSKNTLYLQMNSLRAEDTAVYYCARESPGYDFEYWGQGTLVTVSS VL: not shown |  |  |  |  |  |  | 3.8 | 2.1
5 | TPP-1412 (antibody, human IgG1, lambda, V domains shown, Matured variant of M047-D08) VH: EVQLLESGGGLVQPGGSLRLSCAASGFTFSHSGMHWVRQAPGKGLEWVAVISYDGSNKYYADSVKGRFTISRDNSKNTLYLQMNSLRAEDTAVYYCAREAPLYDFEYWGQGTLVTVSS VL: not shown |  |  |  |  |  |  | 28 | 0.29
6 | TPP-1410 (antibody, human IgG1, lambda, V domains shown, Matured variant of M047-D08) VH: EVQLLESGGGLVQPGGSLRLSCAASGFTFSHSGMHWVRQAPGKGLEWVAVISYDGSNKYYADSVKGRFTISRDNSKNTLYLQMNSLRAEDTAVYYCAREAPGYDFEYWGQGTLVTVSS VL: not shown |  |  |  |  |  |  | 12 | 0.66
7 | TPP-1411 (antibody, human IgG1, lambda, V domains shown, Matured variant of M047-D08) VH: EVQLLESGGGLVQPGGSMRLSCAASGFTFSSSGMHWVRQAPGKGLEWVAVISYDGSNKYYADSVKGRFTISRDNSKNTLYLQMNSLRAEDTAVYYCAREQPGYDFEYWGQGTLVTVSS VL: not shown |  |  |  |  |  |  | 13 | 0.61
8 | TPP-1407 (antibody, human IgG1, lambda, V domains shown, Matured variant of M047-D08) VH: EVQLLESGGGLVQPGGSLRLSCAASGFTFSHSGMHWVRQAPGKGLEWVAVISYDGSNKYYADSVKGRFTISRDNSKNTLYLQMNSLRAEDTAVYYCAREQPLYDFEYWGQGTLVTVSS VL: not shown |  |  |  |  |  |  | 35 | 0.23
9 | M048-D01 (soluble Fab) (Fab, V domains shown, Soluble Fab from E. coli, purified through its His-tag) VH: EVQLLESGGGLVQPGGSLRLSCAASGFTFSSYAMSWVRQAPGKGLEWVSAISGSGTSTYYADSVKGRFTISRDNSKNTLYLQMNSLRAEDTAVYYCARVRYNWNHGDWFDPWGQGTLVTVSS VL: QSVLTQPPSASGTPGQRVTISCSGSSSNIGNNYVSWYQQLPGTAPKLLIYENYNRPAGVPDRFSGSKSGTSASLAISGLRSEDEADYYCSSWDDSLNYWVFGGGTKLTVL | no binding | no binding | no binding | > 5 | > 5 | > 5 |  | 
